Assay results taken from US20180142032A1 (Sanofi, published 2018).
Positions count from the first letter of the chain named.

Experiments:
mLAMP1::histag = biological target: T1, mLAMP1::histag (mouse, UniProt P11438 25-369); assay: ELISA
T1 construct: also called mouse LAMP1 (25-369); Mouse LAMP1
T1 sequence: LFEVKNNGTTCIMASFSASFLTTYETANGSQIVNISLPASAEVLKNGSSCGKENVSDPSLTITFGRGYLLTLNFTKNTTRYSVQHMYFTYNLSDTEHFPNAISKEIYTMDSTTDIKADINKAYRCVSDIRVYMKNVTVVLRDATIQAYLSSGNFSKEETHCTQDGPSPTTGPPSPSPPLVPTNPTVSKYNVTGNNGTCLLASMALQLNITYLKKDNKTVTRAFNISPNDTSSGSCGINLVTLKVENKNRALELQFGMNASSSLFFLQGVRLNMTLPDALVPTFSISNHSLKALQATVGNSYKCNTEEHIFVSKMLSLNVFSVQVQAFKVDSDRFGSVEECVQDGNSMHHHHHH

[1] = biological target: T2, mLAMP1_L1_LAMP1_L234::histag (mouse/human hybrid); assay: ELISA
T2 construct: also called Loop1: mLAMP1 Loop2-4: hLAMP1
T2 chain: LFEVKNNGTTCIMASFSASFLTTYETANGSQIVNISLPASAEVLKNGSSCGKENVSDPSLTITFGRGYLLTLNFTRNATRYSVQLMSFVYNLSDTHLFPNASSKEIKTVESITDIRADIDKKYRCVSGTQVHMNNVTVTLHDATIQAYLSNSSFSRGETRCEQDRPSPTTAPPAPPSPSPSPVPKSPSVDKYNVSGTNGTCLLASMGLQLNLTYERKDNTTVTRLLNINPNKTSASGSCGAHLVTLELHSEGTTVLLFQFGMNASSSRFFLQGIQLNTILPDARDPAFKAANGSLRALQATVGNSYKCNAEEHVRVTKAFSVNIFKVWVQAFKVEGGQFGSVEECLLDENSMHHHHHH

[2] = biological target: T3, LAMP1_L12_mLAMP1_L34::histag (human/mouse hybrid); assay: ELISA
T3 construct: human LAMP1 (29-195) and mouse LAMP1 (190-369), His tag; also called Loop1-2: hLAMP1 Loop3-4: mLAMP1
T3 chain: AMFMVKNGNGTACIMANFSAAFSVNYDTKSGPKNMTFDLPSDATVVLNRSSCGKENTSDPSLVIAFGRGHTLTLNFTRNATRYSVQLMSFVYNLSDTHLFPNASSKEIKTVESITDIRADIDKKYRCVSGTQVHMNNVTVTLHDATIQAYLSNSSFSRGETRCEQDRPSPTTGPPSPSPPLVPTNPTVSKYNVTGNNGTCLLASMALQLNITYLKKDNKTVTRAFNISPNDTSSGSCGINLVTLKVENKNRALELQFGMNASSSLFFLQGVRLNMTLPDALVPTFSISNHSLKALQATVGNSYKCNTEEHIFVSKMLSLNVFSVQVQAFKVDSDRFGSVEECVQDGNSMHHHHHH

[3] = biological target: T4, LAMP1_L123_mLAMP1_L4::histag (human/mouse hybrid, UniProt P11279 29-375); assay: ELISA
T4 construct: human LAMP1 (29-309) and mouse LAMP1 (299-369), His tag; also called Loop1-3: hLAMP1 Loop4: mLAMP1
T4 chain: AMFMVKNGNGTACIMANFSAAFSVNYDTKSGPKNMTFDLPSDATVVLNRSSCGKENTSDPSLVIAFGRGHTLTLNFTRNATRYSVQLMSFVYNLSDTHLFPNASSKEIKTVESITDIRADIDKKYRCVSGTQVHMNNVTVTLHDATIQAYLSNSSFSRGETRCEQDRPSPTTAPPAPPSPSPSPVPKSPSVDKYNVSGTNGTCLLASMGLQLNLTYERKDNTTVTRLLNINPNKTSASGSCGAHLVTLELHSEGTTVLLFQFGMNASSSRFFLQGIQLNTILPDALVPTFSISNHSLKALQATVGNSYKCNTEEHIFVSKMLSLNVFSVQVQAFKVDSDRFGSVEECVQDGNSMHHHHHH

LAMP1_mseq1_ΔGYQTI = biological target: T5, LAMP1_mseq1_ΔGYQTI (mouse; human); assay: flow cytometry, transfected 293-F cells
T5 construct: on cells; also called pXL6012
T5 sequence (P11279 other isoform, or with tags, fused parts or gaps mutant): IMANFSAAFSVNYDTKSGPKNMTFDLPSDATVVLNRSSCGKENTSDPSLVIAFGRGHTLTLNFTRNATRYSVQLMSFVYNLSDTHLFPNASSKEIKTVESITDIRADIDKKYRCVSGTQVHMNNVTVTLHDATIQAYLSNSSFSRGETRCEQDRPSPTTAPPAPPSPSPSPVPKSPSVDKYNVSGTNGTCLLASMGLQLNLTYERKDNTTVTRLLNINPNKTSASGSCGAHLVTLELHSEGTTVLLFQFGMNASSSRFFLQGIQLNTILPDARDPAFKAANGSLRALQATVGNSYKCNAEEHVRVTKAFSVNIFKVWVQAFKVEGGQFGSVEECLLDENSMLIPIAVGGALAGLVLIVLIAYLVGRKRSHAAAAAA

mLAMP1_ΔGYQTI = biological target: T6, mLAMP1_ΔGYQTI (mouse, UniProt P11438 25-369); assay: flow cytometry, transfected 293-F cells, experiment 1
T6 construct: on cells; also called pXL6009; murine LAMP1; not shown: murine transmembrane domain and cytoplasmic tail with GYQTI replaced by 5 Ala
T6 sequence: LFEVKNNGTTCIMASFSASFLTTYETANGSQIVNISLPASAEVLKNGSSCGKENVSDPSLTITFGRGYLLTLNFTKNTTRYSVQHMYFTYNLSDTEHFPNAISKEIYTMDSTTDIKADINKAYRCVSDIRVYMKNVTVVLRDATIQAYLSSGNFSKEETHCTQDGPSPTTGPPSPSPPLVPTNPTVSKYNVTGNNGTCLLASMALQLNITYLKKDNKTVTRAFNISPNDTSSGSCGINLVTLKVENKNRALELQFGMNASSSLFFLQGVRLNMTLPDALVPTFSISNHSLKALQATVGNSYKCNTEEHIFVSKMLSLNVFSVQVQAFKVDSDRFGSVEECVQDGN

mLAMP1_hseq6-11_ΔGYQTI = biological target: T7, mLAMP1_hseq6-11_ΔGYQTI (mouse; human, UniProt P11438 25-369); assay: as above
T7 construct: on cells; also called pXL6041; not shown: murine transmembrane domain and cytoplasmic tail with GYQTI replaced by 5 Ala
T7 chain: T6 sequence with Y68H, L69T, K76R, T78A, S151N, G152S, N153S, K156R, E157G

B1: MAb1 (antibody, mouse IgG2a, kappa)
heavy: QVQLQQSGAELVKPGASVKMSCKASGYIFTNYNIHWVKKSPGQGLEWIGAIYPGNGDAPYSQKFKDKATLTADKSSSTTYMQLSRLTSEDSAVYYCVRANWDVAFAYWGQGTLVSVSAAKTTAPSVYPLAPVCGDTTGSSVTLGCLVKGYFPEPVTLTWNSGSLSSGVHTFPAVLQSDLYTLSSSVTVTSSTWPSQSITCNVAHPASSTKVDKKIEPRGPTIKPCPPCKCPAPNLLGGPSVFIFPPKIKDVLMISLSPIVTCVVVDVSEDDPDVQISWFVNNVEVHTAQTQTHREDYNSTLRVVSALPIQHQDWMSGKEFKCKVNNKDLPAPIERTISKPKGSVRAPQVYVLPPPEEEMTKKQVTLTCMVTDFMPEDIYVEWTNNGKTELNYKNTEPVLDSDGSYFMYSKLRVEKKNWVERNSYSCSVVHEGLHNHHTTKSFSRTPGK
light: DIQMTQSPPSLSASLGGKVTITCKASQDIDRYMAWYQDKPGKGPRLLIHDTSTLQPGIPSRFSGSGSGRDYSFSISNLEPEDIATYYCLQYDNLWTFGGGTKLEIKRADAAPTVSIFPPSSEQLTSGGASVVCFLNNFYPKDINVKWKIDGSERQNGVLNSWTDQDSKDSTYSMSSTLTLTKDEYERHNSYTCEATHKTSTSPIVKSFNRNEC
notes: murine monoclonal IgG, kappa, from hybridoma; also called murine MAb1
Does B1 bind (mLAMP1::histag)?
Result: no binding

What about the EC50 [1] of the same binder?
The EC50 was 0.15 nM.

What about the EC50 [2] of the same binder?
Its EC50 is 0.18 nM.

What about the EC50 [3] of the same binder?
Its EC50 is 0.16 nM.

What about the mean fluorescence (LAMP1_mseq1_ΔGYQTI) of the same binder?
Its mean fluorescence is 1030.

Does B1 bind (mLAMP1_ΔGYQTI)?
Result: no binding

What about the mean fluorescence (mLAMP1_ΔGYQTI) of the same binder?
The mean fluorescence was 4.

And the mean fluorescence (mLAMP1_hseq6-11_ΔGYQTI)?
Its mean fluorescence is 680.

B2: MAb2 (antibody, mouse IgG1, kappa)
heavy: QVQLQQSAAELARPGASVKMSCKASGYTFTSYTMHWVKQRPGQGLEWIGYFNPSSGYPEYNQKFKDKTTLTADKSSNTAFIQLNSLTSEDSAVYYCSRGYYYGSRGYALDFWGQGASVTVSSAKTTPPSVYPLAPGSAAQTNSMVTLGCLVKGYFPEPVTVTWNSGSLSSGVHTFPAVLQSDLYTLSSSVTVPSSTWPSETVTCNVAHPASSTKVDKKIVPRDCGCKPCICTVPEVSSVFIFPPKPKDVLTITLTPKVTCVVVDISKDDPEVQFSWFVDDVEVHTAQTQPREEQFNSTFRSVSELPIMHQDWLNGKEFKCRVNSAAFPAPIEKTISKTKGRPKAPQVYTIPPPKEQMAKDKVSLTCMITDFFPEDITVEWQWNGQPAENYKNTQPIMDTDGSYFVYSKLNVQKSNWEAGNTFTCSVLHEGLHNHHTEKSLSHSPGK
light: NIVLTQSPVSLAVSLGQRATISCRASESVDINGNTFMHWYQQKPGQSPKLVIYAASNIESGVPARFSGSGSSTDFTFTIDPVEADDVATYYCQQNIEDPWTFGGGTKVEIKRADAAPTVSIFPPSSEQLTSGGASVVCFLNNFYPKDINVKWKIDGSERQNGVLNSWTDQDSKDSTYSMSSTLTLTKDEYERHNSYTCEATHKTSTSPIVKSFNRNEC
notes: murine monoclonal IgG, kappa, from hybridoma; also called murine MAb2
What does the source list for B2?
binding result (mLAMP1::histag): no binding; binding result [1]: no binding; EC50 [2]: 0.25 nM; EC50 [3]: 0.25 nM; mean fluorescence (LAMP1_mseq1_ΔGYQTI): 105; binding result (mLAMP1_ΔGYQTI): no binding; mean fluorescence (mLAMP1_ΔGYQTI): 21; binding result (mLAMP1_hseq6-11_ΔGYQTI): no binding; mean fluorescence (mLAMP1_hseq6-11_ΔGYQTI): 28
